Laboratory results: the supplement of paper PMC10065799, “High-throughput profiling of sequence recognition by tyrosine kinases and SH2 domains using bacterial peptide display” (eLife, 2023)

How the values were obtained:
[1] = tested on: AncSZ; test: phosphorylation enrichment, bacterial display (enrichment ratio); higher = better substrate or ligand; peptides without Tyr show the background
[2] = target: EPHB1 (UniProt P54762); test: as above
[3] = target: EPHB2 (UniProt P29323); test: as above
EPHB2, sequence (P29323 whole entry, looked up): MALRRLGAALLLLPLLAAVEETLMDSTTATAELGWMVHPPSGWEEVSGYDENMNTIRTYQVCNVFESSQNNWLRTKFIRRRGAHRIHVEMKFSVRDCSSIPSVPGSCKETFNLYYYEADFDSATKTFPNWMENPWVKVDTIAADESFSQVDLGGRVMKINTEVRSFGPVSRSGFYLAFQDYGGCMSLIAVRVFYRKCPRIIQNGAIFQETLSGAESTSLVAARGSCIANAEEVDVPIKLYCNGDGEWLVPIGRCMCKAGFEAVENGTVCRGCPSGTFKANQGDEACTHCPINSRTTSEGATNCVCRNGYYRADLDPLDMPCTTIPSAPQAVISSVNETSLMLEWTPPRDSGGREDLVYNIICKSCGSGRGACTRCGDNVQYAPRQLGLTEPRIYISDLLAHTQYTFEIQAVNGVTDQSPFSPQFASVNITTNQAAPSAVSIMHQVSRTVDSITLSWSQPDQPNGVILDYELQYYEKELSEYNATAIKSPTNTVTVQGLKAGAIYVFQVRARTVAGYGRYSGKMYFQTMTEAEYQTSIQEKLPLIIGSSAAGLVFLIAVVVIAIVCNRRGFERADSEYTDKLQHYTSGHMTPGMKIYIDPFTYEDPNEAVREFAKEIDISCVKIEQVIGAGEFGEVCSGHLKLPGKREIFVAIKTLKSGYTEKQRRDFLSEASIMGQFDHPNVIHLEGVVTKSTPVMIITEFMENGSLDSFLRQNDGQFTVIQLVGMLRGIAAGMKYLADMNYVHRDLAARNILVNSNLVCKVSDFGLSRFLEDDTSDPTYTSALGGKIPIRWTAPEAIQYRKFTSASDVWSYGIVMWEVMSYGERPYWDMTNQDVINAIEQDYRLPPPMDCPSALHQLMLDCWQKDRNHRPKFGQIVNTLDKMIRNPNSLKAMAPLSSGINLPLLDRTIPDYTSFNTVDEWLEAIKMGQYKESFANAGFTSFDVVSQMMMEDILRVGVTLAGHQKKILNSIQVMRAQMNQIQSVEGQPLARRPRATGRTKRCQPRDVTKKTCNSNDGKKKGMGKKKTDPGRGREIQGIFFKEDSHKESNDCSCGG

[4] = target: FGFR1 (UniProt P11362); test: as above
[5] = target: FGFR3 (UniProt P22607); test: as above
FGFR3, sequence (P22607 whole entry, looked up): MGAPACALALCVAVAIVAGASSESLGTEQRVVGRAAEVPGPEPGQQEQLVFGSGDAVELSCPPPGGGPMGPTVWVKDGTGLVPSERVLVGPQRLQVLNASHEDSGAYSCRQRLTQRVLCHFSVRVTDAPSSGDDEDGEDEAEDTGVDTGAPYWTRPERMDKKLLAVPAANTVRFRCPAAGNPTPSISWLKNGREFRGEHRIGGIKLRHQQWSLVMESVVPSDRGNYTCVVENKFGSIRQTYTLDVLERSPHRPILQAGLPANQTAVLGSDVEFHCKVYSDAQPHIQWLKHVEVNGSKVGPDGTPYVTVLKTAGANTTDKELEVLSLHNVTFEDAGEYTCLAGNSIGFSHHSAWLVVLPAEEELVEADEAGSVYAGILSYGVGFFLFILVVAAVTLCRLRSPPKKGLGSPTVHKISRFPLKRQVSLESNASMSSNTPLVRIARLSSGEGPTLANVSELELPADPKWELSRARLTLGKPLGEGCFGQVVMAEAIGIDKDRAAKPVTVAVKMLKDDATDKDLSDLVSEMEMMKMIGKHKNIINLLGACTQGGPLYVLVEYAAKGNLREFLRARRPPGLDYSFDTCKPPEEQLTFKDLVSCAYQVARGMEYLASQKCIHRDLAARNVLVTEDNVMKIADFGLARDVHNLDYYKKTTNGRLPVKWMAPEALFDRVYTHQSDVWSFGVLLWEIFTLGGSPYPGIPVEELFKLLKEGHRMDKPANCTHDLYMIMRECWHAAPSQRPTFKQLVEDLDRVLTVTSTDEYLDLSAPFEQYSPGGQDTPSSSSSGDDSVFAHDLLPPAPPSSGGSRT

[6] = tested on: Fer (mouse); test: as above
[7] = target: Fes (UniProt P07332); test: as above
Fes, sequence (P07332 whole entry, looked up): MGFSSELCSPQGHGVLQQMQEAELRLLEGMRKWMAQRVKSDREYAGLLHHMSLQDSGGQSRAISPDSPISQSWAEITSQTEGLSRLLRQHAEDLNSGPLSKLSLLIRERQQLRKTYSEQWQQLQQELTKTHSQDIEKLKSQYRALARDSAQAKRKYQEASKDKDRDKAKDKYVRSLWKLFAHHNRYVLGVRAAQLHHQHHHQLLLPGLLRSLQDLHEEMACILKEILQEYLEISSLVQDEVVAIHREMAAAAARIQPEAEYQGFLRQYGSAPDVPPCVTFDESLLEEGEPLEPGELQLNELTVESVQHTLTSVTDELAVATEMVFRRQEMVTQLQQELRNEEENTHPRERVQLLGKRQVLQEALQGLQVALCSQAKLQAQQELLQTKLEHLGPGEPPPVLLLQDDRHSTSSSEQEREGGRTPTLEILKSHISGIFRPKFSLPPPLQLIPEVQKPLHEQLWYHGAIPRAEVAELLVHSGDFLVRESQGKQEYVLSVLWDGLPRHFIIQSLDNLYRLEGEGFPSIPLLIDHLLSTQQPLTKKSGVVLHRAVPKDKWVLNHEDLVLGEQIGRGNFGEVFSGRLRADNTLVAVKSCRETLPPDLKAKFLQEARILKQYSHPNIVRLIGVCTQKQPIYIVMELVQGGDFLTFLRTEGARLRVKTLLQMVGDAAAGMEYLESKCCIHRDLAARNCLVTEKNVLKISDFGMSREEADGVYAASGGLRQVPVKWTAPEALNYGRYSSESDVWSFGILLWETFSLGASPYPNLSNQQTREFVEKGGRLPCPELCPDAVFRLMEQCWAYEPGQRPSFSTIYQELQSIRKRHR

[8] = target: Fyn (UniProt P06241); test: as above
Fyn, sequence (P06241 whole entry, looked up): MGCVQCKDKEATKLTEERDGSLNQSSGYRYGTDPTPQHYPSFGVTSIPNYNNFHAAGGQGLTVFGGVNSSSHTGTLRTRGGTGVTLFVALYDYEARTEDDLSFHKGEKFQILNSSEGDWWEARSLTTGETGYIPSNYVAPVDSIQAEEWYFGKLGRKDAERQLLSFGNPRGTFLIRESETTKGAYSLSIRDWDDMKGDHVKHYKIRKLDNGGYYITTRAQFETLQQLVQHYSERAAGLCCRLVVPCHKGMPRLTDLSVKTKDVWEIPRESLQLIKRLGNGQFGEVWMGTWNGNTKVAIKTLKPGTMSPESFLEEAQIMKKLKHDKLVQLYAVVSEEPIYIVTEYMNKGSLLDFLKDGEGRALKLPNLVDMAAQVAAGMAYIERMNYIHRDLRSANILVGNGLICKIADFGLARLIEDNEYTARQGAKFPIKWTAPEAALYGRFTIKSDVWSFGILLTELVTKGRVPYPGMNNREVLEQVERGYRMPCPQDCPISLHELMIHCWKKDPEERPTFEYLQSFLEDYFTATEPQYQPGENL

[9] = target: Hck (UniProt P08631); test: as above
Hck, sequence (P08631 whole entry, looked up): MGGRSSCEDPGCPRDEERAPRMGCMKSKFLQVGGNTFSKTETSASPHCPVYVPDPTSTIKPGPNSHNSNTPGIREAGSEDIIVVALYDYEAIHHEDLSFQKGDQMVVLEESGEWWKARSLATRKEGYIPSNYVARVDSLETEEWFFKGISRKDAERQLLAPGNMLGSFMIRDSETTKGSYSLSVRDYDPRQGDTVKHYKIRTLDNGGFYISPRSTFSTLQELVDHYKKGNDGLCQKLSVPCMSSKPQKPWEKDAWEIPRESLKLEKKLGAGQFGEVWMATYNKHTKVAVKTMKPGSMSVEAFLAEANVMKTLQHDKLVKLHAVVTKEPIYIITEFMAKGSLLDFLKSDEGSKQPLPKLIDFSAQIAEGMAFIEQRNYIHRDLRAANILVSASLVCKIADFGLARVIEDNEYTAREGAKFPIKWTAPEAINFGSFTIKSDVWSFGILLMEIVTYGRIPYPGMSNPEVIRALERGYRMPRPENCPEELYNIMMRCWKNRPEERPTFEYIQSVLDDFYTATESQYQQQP

[10] = target: Jak2 (UniProt O60674); test: as above
[11] = target: MERTK (UniProt Q12866); test: as above
[12] = tested on: c-Abl (mouse); test: as above
[13] = tested on: c-Src; test: as above
[14] = target: Grb2 SH2 (UniProt P62993); test: SH2 binding enrichment of the phosphorylated peptide, bacterial display (enrichment ratio); higher = better substrate or ligand; peptides without Tyr show the background
Grb2 SH2, sequence (P62993 whole entry, looked up): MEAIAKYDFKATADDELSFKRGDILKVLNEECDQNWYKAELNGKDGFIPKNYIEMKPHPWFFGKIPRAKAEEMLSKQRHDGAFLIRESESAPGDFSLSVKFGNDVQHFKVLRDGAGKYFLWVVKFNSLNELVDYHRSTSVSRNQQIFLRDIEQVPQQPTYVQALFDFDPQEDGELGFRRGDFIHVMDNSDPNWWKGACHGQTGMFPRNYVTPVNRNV

[15] = target: SHP2-C SH2; test: as above
[16] = target: c-Src SH2; test: as above
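Wherever SH2 binding enrichment of the phosphorylated peptide, bacterial display is given: peptide library displayed on the E. coli surface as eCPX fusions, selected cells deep-sequenced, score is each peptide's frequency after selection divided by its frequency in the input.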
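Wherever phosphorylation enrichment, bacterial display is given: 11-residue human phosphosite peptides and single-mutation variants displayed on the E. coli surface, counted by deep sequencing, each peptide's frequency after selection divided by its frequency in the unselected input library; frequency after pTyr selection over input frequency; kinase dosed for 20-30% of maximal phosphorylation in three min.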

EPHB1, sequence (P54762 whole entry, looked up): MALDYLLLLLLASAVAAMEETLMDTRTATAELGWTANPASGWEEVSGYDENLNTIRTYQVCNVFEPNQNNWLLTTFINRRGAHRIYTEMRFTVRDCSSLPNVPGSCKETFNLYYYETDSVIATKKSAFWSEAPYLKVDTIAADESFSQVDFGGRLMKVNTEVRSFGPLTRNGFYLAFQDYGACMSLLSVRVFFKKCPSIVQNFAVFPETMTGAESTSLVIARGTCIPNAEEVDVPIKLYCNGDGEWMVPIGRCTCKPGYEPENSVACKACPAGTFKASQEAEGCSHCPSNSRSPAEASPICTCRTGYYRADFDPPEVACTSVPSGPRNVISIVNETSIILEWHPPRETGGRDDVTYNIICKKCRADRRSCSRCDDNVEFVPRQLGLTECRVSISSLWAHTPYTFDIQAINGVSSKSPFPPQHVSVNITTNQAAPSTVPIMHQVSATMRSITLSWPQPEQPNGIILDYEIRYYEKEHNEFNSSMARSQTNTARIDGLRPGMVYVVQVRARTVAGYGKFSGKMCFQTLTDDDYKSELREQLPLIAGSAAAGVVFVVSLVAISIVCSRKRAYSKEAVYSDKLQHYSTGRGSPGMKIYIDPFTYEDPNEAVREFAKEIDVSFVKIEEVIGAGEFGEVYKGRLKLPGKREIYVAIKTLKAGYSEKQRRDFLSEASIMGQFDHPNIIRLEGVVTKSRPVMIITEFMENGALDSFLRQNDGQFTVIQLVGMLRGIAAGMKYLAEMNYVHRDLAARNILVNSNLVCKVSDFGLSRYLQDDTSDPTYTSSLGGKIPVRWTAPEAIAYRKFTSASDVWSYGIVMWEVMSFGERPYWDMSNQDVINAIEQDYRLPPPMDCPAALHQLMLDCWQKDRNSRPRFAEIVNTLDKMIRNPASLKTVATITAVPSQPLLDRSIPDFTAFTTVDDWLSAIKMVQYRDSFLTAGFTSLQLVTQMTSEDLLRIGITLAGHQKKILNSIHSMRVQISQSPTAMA

Work on RELGEYPLAEY [ALDH1A3_Y492_A493P] yielded a phosphorylation enrichment [1] of 0.982, a phosphorylation enrichment [2] of 0.484 and a phosphorylation enrichment [3] of 0.495. For the same sequence, the phosphorylation enrichment [4] was 0.688, the phosphorylation enrichment [5] was 0.685 and the phosphorylation enrichment [6] was 0.593. It also gave a phosphorylation enrichment [7] of 1.41, a phosphorylation enrichment [8] of 0.582 and a phosphorylation enrichment [9] of 0.505. For the same sequence, the phosphorylation enrichment [10] was 1.97, the phosphorylation enrichment [11] was 0.516 and the phosphorylation enrichment [12] was 1.17. The phosphorylation enrichment [13] was 0.492, the SH2 binding enrichment [14] was 0.795 and the SH2 binding enrichment [15] was 0.291. For the same sequence, the SH2 binding enrichment [16] was 2.46.

For RELSWYRGRRP [HESX1_Y106], the phosphorylation enrichment [1] was 1.02, the phosphorylation enrichment [2] was 0.484 and the phosphorylation enrichment [3] was 0.683. It also gave a phosphorylation enrichment [4] of 0.53, a phosphorylation enrichment [5] of 0.563 and a phosphorylation enrichment [6] of 0.693. The phosphorylation enrichment [7] was 0.794, the phosphorylation enrichment [8] was 0.781 and the phosphorylation enrichment [9] was 0.809. For the same sequence, the phosphorylation enrichment [10] was 0.895, the phosphorylation enrichment [11] was 0.833 and the phosphorylation enrichment [12] was 0.787. It also gave a phosphorylation enrichment [13] of 0.727, an SH2 binding enrichment [14] of 0.734 and an SH2 binding enrichment [15] of 0.422. For the same sequence, the SH2 binding enrichment [16] was 0.318.

Work on REVPVYTDSEP [FAM120B_Y368] yielded a phosphorylation enrichment [1] of 1.35, a phosphorylation enrichment [2] of 0.965 and a phosphorylation enrichment [3] of 0.725. It also gave a phosphorylation enrichment [4] of 0.588, a phosphorylation enrichment [5] of 1.4 and a phosphorylation enrichment [6] of 0.895. For the same sequence, the phosphorylation enrichment [7] was 1.35, the phosphorylation enrichment [8] was 0.753 and the phosphorylation enrichment [9] was 0.643. For the same sequence, the phosphorylation enrichment [10] was 1.38, the phosphorylation enrichment [11] was 0.478 and the phosphorylation enrichment [12] was 0.964. It also gave a phosphorylation enrichment [13] of 0.872, an SH2 binding enrichment [14] of 0.986 and an SH2 binding enrichment [15] of 0.351. For the same sequence, the SH2 binding enrichment [16] was 0.911.

RFFTTYDTNGR [CLCA1_Y665_YF] was tested, and the phosphorylation enrichment [1] was 1.08, the phosphorylation enrichment [2] was 0.726 and the phosphorylation enrichment [3] was 0.834. The phosphorylation enrichment [4] was 0.674, the phosphorylation enrichment [5] was 0.878 and the phosphorylation enrichment [6] was 0.688. The phosphorylation enrichment [7] was 0.951, the phosphorylation enrichment [8] was 0.627 and the phosphorylation enrichment [9] was 0.787. For the same sequence, the phosphorylation enrichment [10] was 0.816, the phosphorylation enrichment [11] was 0.707 and the phosphorylation enrichment [12] was 0.858. It also gave a phosphorylation enrichment [13] of 1.09, an SH2 binding enrichment [14] of 0.825 and an SH2 binding enrichment [15] of 1.67. For the same sequence, the SH2 binding enrichment [16] was 0.532.

RFLRGYRQFAF [HLA-A_Y137_D140Y_YF] showed a phosphorylation enrichment [1] of 1.19, a phosphorylation enrichment [2] of 0.67 and a phosphorylation enrichment [3] of 0.514. The phosphorylation enrichment [4] was 0.643, the phosphorylation enrichment [5] was 0.579 and the phosphorylation enrichment [6] was 0.678. It also gave a phosphorylation enrichment [7] of 0.908, a phosphorylation enrichment [8] of 0.583 and a phosphorylation enrichment [9] of 0.519. For the same sequence, the phosphorylation enrichment [10] was 0.661, the phosphorylation enrichment [11] was 0.587 and the phosphorylation enrichment [12] was 0.661. The phosphorylation enrichment [13] was 0.76, the SH2 binding enrichment [14] was 0.895 and the SH2 binding enrichment [15] was 0.521. The SH2 binding enrichment [16] was 0.412.

RFVTRYIFNRE [HLA-DQB1_Y62_YF] showed a phosphorylation enrichment [1] of 1.2, a phosphorylation enrichment [2] of 0.536 and a phosphorylation enrichment [3] of 0.591. The phosphorylation enrichment [4] was 0.923, the phosphorylation enrichment [5] was 0.796 and the phosphorylation enrichment [6] was 0.615. The phosphorylation enrichment [7] was 1.68, the phosphorylation enrichment [8] was 0.76 and the phosphorylation enrichment [9] was 0.655. For the same sequence, the phosphorylation enrichment [10] was 0.921, the phosphorylation enrichment [11] was 0.643 and the phosphorylation enrichment [12] was 0.528. For the same sequence, the phosphorylation enrichment [13] was 0.593, the SH2 binding enrichment [14] was 0.627 and the SH2 binding enrichment [15] was 0.721. It also gave an SH2 binding enrichment [16] of 0.355.

With RGESFYQDTMN [RARS_Y338_R341T] the phosphorylation enrichment [1] was 1.02, the phosphorylation enrichment [2] was 2.62 and the phosphorylation enrichment [3] was 1.63. The phosphorylation enrichment [4] was 0.695, the phosphorylation enrichment [5] was 0.888 and the phosphorylation enrichment [6] was 1.79. For the same sequence, the phosphorylation enrichment [7] was 0.98, the phosphorylation enrichment [8] was 0.634 and the phosphorylation enrichment [9] was 0.429. For the same sequence, the phosphorylation enrichment [10] was 0.941, the phosphorylation enrichment [11] was 1.02 and the phosphorylation enrichment [12] was 1.03. The phosphorylation enrichment [13] was 0.602, the SH2 binding enrichment [14] was 0.98 and the SH2 binding enrichment [15] was 0.807. It also gave an SH2 binding enrichment [16] of 0.694.

In the case of RGKLFYQEVPA [METTL11B_Y76_A72G], the phosphorylation enrichment [1] is reported as 0.844, the phosphorylation enrichment [2] is reported as 1.48 and the phosphorylation enrichment [3] is reported as 0.777. For the same sequence, the phosphorylation enrichment [4] was 1.37, the phosphorylation enrichment [5] was 1.29 and the phosphorylation enrichment [6] was 0.719. For the same sequence, the phosphorylation enrichment [7] was 1.05, the phosphorylation enrichment [8] was 0.544 and the phosphorylation enrichment [9] was 0.853. It also gave a phosphorylation enrichment [10] of 0.649, a phosphorylation enrichment [11] of 3.21 and a phosphorylation enrichment [12] of 0.503. The phosphorylation enrichment [13] was 0.564, the SH2 binding enrichment [14] was 0.956 and the SH2 binding enrichment [15] was 0.804. For the same sequence, the SH2 binding enrichment [16] was 1.11.

Sequence RGVTRYIYNRE [HLA-DQB1_Y62_Y58G] has a phosphorylation enrichment [1] of 1.34, a phosphorylation enrichment [2] of 0.912 and a phosphorylation enrichment [3] of 0.547. It also gave a phosphorylation enrichment [4] of 0.809, a phosphorylation enrichment [5] of 0.619 and a phosphorylation enrichment [6] of 0.768. It also gave a phosphorylation enrichment [7] of 1.16, a phosphorylation enrichment [8] of 0.96 and a phosphorylation enrichment [9] of 0.97. It also gave a phosphorylation enrichment [10] of 1.25, a phosphorylation enrichment [11] of 0.865 and a phosphorylation enrichment [12] of 1. It also gave a phosphorylation enrichment [13] of 0.953, an SH2 binding enrichment [14] of 0.802 and an SH2 binding enrichment [15] of 0.756. It also gave an SH2 binding enrichment [16] of 0.527.

Sequence RHFTTYDTNGR [CLCA1_Y665_Y661H] has a phosphorylation enrichment [1] of 0.93, a phosphorylation enrichment [2] of 0.609 and a phosphorylation enrichment [3] of 0.97. It also gave a phosphorylation enrichment [4] of 0.808, a phosphorylation enrichment [5] of 0.755 and a phosphorylation enrichment [6] of 0.594. It also gave a phosphorylation enrichment [7] of 0.938, a phosphorylation enrichment [8] of 1.01 and a phosphorylation enrichment [9] of 0.835. For the same sequence, the phosphorylation enrichment [10] was 0.844, the phosphorylation enrichment [11] was 0.707 and the phosphorylation enrichment [12] was 0.618. The phosphorylation enrichment [13] was 0.876, the SH2 binding enrichment [14] was 0.716 and the SH2 binding enrichment [15] was 0.642. It also gave an SH2 binding enrichment [16] of 0.494.

Sequence RHLQEYQDLLN [GFAP_Y349] has a phosphorylation enrichment [1] of 0.737, a phosphorylation enrichment [2] of 0.513 and a phosphorylation enrichment [3] of 0.45. For the same sequence, the phosphorylation enrichment [4] was 0.418, the phosphorylation enrichment [5] was 0.477 and the phosphorylation enrichment [6] was 0.389. It also gave a phosphorylation enrichment [7] of 0.807, a phosphorylation enrichment [8] of 0.616 and a phosphorylation enrichment [9] of 0.468. The phosphorylation enrichment [10] was 0.565, the phosphorylation enrichment [11] was 0.392 and the phosphorylation enrichment [12] was 0.417. It also gave a phosphorylation enrichment [13] of 0.399, an SH2 binding enrichment [14] of 1.71 and an SH2 binding enrichment [15] of 1.27. For the same sequence, the SH2 binding enrichment [16] was 1.13.

Work on RHPLDYLRQFP [NARS2_Y138_E137D_YF] yielded a phosphorylation enrichment [1] of 0.719, a phosphorylation enrichment [2] of 0.458 and a phosphorylation enrichment [3] of 0.583. The phosphorylation enrichment [4] was 0.429, the phosphorylation enrichment [5] was 0.449 and the phosphorylation enrichment [6] was 0.349. It also gave a phosphorylation enrichment [7] of 0.74, a phosphorylation enrichment [8] of 0.511 and a phosphorylation enrichment [9] of 0.498. For the same sequence, the phosphorylation enrichment [10] was 0.78, the phosphorylation enrichment [11] was 0.56 and the phosphorylation enrichment [12] was 0.753. For the same sequence, the phosphorylation enrichment [13] was 0.609, the SH2 binding enrichment [14] was 1.05 and the SH2 binding enrichment [15] was 0.746. It also gave an SH2 binding enrichment [16] of 0.519.

Work on RHTRSYDYTEG [FGF7_Y56_M59T] yielded a phosphorylation enrichment [1] of 0.521, a phosphorylation enrichment [2] of 0.407 and a phosphorylation enrichment [3] of 0.369. For the same sequence, the phosphorylation enrichment [4] was 0.488, the phosphorylation enrichment [5] was 0.546 and the phosphorylation enrichment [6] was 0.477. The phosphorylation enrichment [7] was 0.918, the phosphorylation enrichment [8] was 0.635 and the phosphorylation enrichment [9] was 0.602. For the same sequence, the phosphorylation enrichment [10] was 0.587, the phosphorylation enrichment [11] was 0.514 and the phosphorylation enrichment [12] was 0.414. For the same sequence, the phosphorylation enrichment [13] was 0.476, the SH2 binding enrichment [14] was 0.864 and the SH2 binding enrichment [15] was 0.841. For the same sequence, the SH2 binding enrichment [16] was 1.5.

In the case of RIDPDYVGRVR [IGSF9_Y81], the phosphorylation enrichment [1] is reported as 0.871, the phosphorylation enrichment [2] is reported as 0.534 and the phosphorylation enrichment [3] is reported as 0.402. The phosphorylation enrichment [4] was 0.496, the phosphorylation enrichment [5] was 0.482 and the phosphorylation enrichment [6] was 0.384. For the same sequence, the phosphorylation enrichment [7] was 0.702, the phosphorylation enrichment [8] was 0.481 and the phosphorylation enrichment [9] was 0.403. It also gave a phosphorylation enrichment [10] of 0.778, a phosphorylation enrichment [11] of 0.405 and a phosphorylation enrichment [12] of 0.65. It also gave a phosphorylation enrichment [13] of 0.563, an SH2 binding enrichment [14] of 0.758 and an SH2 binding enrichment [15] of 0.755. For the same sequence, the SH2 binding enrichment [16] was 0.583.
